Patent US20190105405A1 (MONASH UNIVERSITY, published 2019)

Experiments:
[1] = target: PDIA1 (human) (UniProt P07237); experiment: co-IP from LIM1215 lysates equalised for ADAM10, mass spectrometry
[2] = target: T1, AxxA mutant human ADAM10 (Cys594 and Cys597 to alanine) (human, UniProt O14672 214-748); experiment: immunoprecipitation from lysates of ADAM10-/- MEFs transfected with AxxA mutant ADAM10, Western blot α-ADAM10
T1 construct: Expressed in ADAM10-/- mouse embryonic fibroblasts; tested in detergent lysates by IP; also called AXXA mutant ADAM10; AxxA ADAM10; not shown: turbo-myc tag of the OriGene construct
T1 sequence: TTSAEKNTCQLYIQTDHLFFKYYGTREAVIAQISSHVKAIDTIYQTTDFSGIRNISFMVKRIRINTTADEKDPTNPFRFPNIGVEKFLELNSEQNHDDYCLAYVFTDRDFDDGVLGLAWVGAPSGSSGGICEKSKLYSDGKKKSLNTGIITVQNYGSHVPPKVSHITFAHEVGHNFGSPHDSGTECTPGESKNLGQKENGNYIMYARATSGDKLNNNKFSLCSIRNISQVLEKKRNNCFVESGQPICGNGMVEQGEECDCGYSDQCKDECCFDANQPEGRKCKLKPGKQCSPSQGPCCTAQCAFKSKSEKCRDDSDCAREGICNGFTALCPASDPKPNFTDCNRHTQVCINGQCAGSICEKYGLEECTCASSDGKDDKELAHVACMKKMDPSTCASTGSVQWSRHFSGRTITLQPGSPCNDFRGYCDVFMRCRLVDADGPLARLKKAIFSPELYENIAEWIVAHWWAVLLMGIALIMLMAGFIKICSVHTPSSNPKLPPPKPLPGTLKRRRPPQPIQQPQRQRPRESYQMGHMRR

[3] = target: T2, recombinant huADAM10D+C protein (human, UniProt O14672 455-646); experiment: SPR, BIAcore 3000, huADAM10D+C immobilised, antibody in solution
T2 construct: the whole entry is named here (the bovine construct was 455-646); also called huADAM10D+C domain protein; immobilised recombinant huADAM10D+C
T2 sequence: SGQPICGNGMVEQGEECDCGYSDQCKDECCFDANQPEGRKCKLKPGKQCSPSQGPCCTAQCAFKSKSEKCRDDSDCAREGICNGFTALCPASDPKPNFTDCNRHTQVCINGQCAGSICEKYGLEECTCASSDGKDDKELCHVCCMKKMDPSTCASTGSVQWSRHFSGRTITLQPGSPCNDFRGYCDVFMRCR

PDIA1 (human), sequence (P07237 18-508 limits assumed): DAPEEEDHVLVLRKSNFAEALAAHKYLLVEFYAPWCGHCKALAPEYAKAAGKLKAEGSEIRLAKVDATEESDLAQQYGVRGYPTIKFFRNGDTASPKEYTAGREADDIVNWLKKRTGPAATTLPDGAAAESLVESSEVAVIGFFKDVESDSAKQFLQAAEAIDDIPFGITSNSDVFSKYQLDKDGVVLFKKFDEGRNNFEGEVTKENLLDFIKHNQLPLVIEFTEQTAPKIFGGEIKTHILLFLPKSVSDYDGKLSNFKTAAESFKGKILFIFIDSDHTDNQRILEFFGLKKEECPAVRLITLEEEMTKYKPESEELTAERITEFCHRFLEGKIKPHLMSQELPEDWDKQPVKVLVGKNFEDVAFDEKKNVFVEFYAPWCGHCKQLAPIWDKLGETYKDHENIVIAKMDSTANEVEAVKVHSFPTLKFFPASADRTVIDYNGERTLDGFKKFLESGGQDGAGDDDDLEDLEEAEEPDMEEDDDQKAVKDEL

human ADAM10, endogenous full length (from UniProt O14672 214-748) (enzyme)
fold more peptides detected in 8C7 IPs than in 4A11 IPs [1]: > 50 fold

B1: anti-ADAM10 monoclonal antibody 8C7 (murine) (antibody, V domains shown)
VH: EVQLQQSGAELARPGSSVKLSCKASGYTFTNYWLQWVKQRTGQGLEWIGAIYPRDGDAKYSQKFKDKASLTVNESSSTAYMHLSALASEDSAVYYCARANYGLYYAMDRWGQGTSVTVSS
VL: DIFLTQSPANMSVSPGERVSFSCRASQNIGTNIHWYQQRTNGSPRLLIKYASESISGIPSRFSGSGSGTDFILSINTVESEDIAVYFCQQSNRWPFTFGSGTKLEVI
modifications: Alexa647 dye or coupling to Minileak beads in some experiments; not carried by the letters
notes: Murine whole IgG; Used soluble, coupled to Minileak beads, or Alexa647-labelled depending on the experiment; also called mAb 8C7; mAb8C7
binding result [2]: no binding

B2: ch8C7, human and mouse chimerised version of mAb 8C7 (antibody, V domains shown)
VH: EVQLQQSGAELARPGSSVKLSCKASGYTFTNYWLQWVKQRTGQGLEWIGAIYPRDGDAKYSQKFKDKASLTVNESSSTAYMHLSALASEDSAVYYCARANYGLYYAMDRWGQGTSVTVSS
VL: DIFLTQSPANMSVSPGERVSFSCRASQNIGTNIHWYQQRTNGSPRLLIKYASESISGIPSRFSGSGSGTDFILSINTVESEDIAVYFCQQSNRWPFTFGSGTKLEVIR
notes: The exact V/C junction is not described; also called chimeric 8C7
Kd [3]: 6.71 nM
koff [3]: 0.00105 s⁻¹
kon [3]: 157000 M⁻¹ s⁻¹

B3: hu8C7, fully humanised version of 8C7 (antibody, human IgG1, kappa, V domains shown)
VH: EVQLQQSGAELAKPGSSVKLSCKASGYTFTNYWLQWVKQRPGQGLEWIGAIYPRDGDAKYSQKFKDKASITVNESTSTAYMHLSSLRSEDTAVYYCARANYGLYYAMDRWGQGTTVTVSS
VL: DIVLTQSPAFMSVSPGERVSVSCRASQNIGTNIHWYQQRPDQSPRLLIKYASESISGIPSRFSGSGSGTDFYLTINSVESEDIAVYFCQQSNRWPFTFGSGTKLEVKR
notes: Human IgG1-kappa; humanised variable domains replaced the murine ones in the ch8C7 constructs; The exact V/C junction is not described; also called humanized 8C7
Kd [3]: 7.33 nM
koff [3]: 0.00122 s⁻¹
kon [3]: 166000 M⁻¹ s⁻¹
